One test addresses T1, TNF (human, UniProt P01375 77-233).
T1 construct: also called TNF (Strathmann hTNFa); hTNFa
As to the kind of experiment: SPR, Biacore 3000; sample captured by anti-human CH1 antibody, TNF as analyte.

Test [1] deals with T2, human serum albumin (human, UniProt P02768 25-609).
T2 construct: Bought protein; also called HSA
As to the kind of experiment: SPR, Biacore 3000; construct captured by anti-human CH1 antibody, 50 nM HSA alone.
Description: (§1) Covalent immobilisation of the capture antibody was achieved by standard amine coupling chemistry.
(§2) After each cycle, the capture surface was regenerated with 2×1 min injections of 40 mM HCl followed by 30 s of 5 mM NaOH. The flow rates used were 10 μl/min for capture, 30 μl/min for association and dissociation phases, and 10 μl/min for regeneration.

The target in a further test is T3, Ox40/mFc (UniProt P43489 29-214).
T3 construct: Bought fusion protein; also called Ox40/mFc (AXXORA 1588)
T3 sequence (looked up): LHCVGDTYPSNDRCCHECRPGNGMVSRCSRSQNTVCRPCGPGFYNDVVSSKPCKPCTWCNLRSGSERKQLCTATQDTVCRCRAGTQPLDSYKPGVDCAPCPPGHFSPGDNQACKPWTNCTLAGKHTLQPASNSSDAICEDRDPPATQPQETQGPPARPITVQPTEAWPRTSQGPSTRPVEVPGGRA
Description: SPR, Biacore 3000; construct captured by anti-human CH1 antibody, 20 nM Ox40/mFc alone.

The next test concerns the target T4, IL13 (UniProt P35225 35-146, limits assumed).
T4 construct: also called IL13 (R&D 213IL)
As to the kind of experiment: SPR, Biacore 3000; sample captured by anti-human CH1 antibody, IL13 as analyte.

The target of test [2] is T2, human serum albumin. As to the kind of experiment: SPR, Biacore T100; sample captured by anti-human CH1 antibody, HSA as analyte.
Description: as §1, §2
A blank flow-cell was used for reference subtraction and buffer-blank injections were included to subtract instrument noise and drift.
Test [3] deals with T5, IL-6 (UniProt P05231 30-212, limits assumed). As to the kind of experiment: SPR, Biacore T100; sample captured by anti-human CH1 antibody, IL-6 as analyte.
Test [4] concerns the target T2, human serum albumin. Description: SPR, Biacore T100; sample captured by anti-human CH1 antibody, HSA as analyte, 1:1 fit.
Description: as §1, §2
Kinetic parameters were determined by simultaneous global-fitting of the resulting sensorgrams to a standard 1:1 binding model using Biacore T100 Evaluation Software v2.0.1.
In test [5] the target is T5, IL-6. As to the kind of experiment: SPR, Biacore T100; sample captured by anti-human CH1 antibody, IL-6 as analyte; kinetics not given.

Description for IL13: as §1, §2
(§3) Kinetic parameters were determined by simultaneous global-fitting of the resulting sensorgrams to a standard 1:1 binding model using Biacore 3000 Evaluation Software v3.2
Description for Ox40/mFc: as §1, §2
Description for TNF: as §1, §2, §3

B1: A26Fab-(3xG4S)-645dsFv-(3xG4S)-870Fv (other)
heavy: EVQLVESGGGLVQPGGSLRLSCAASGFTFTNYGIHWIRQAPGKGLEWVASISPSGGLTYYRDSVKGRFTISRDDAKNSPYLQMNSLRAEDTAVYYCATGGEGIFDYWGQGTLVTVSSASTKGPSVFPLAPSSKSTSGGTAALGCLVKDYFPEPVTVSWNSGALTSGVHTFPAVLQSSGLYSLSSVVTVPSSSLGTQTYICNVNHKPSNTKVDKKVEPKSCSGGGGSGGGGSGGGGSEVQLLESGGGLVQPGGSLRLSCAVSGIDLSNYAINWVRQAPGKCLEWIGIIWASGTTFYATWAKGRFTISRDSTTVYLQMNSLRAEDTAVYYCARTVPGYSTAPYFDLWGQGTLVTVSSGGGGSGGGGSGGGGSEVQLVESGGGLVQPGGSLRLSCAASGYVFTDYGMNWVRQAPGKGLEWMGWINTYIGEPIYADSVKGRFTFSLDTSKSTAYLQMNSLRAEDTAVYYCARGYRSYAMDYWGQGTLVTVSS
light: DIQMTQSPSSLSASVGDRVTITCRATQSIYNALAWYQQKPGKAPKLLIYNANTLHTGVPSRFSASGSGTDSTLTISSLQPEDFATYYCQQYYDYPLTFGGGTKVEIKRTVAAPSVFIFPPSDEQLKSGTASVVCLLNNFYPREAKVQWKVDNALQSGNSQESVTEQDSKDSTYSLSSTLTLSKADYEKHKVYACEVTHQGLSSPVTKSFNRGECSGGGGSGGGGSGGGGSDIVMTQSPSSVSASVGDRVTITCQSSPSVWSNFLSWYQQKPGKAPKLLIYEASKLTSGVPSRFKGSGSGTDFTLTISSLQPEDFATYYCGGGYSSISDTTFGCGTKVEIKGGGGSGGGGSGGGGSDIQMTQSPSSLSASVGDRVTITCKASQNVGTNVAWYQQKPGKAPKALIYSASFLYSGVPYRFSGSGSGTDFTLTISSLQPEDFATYYCQQYNIYPLTFGQGTKVEIK
notes: Trispecific Fab-Fv-Fv (OX40, HSA, TNF); terminal 870 Fv without a disulfide (-DS read as Fv); HEK293 supernatant; also called A26-645-870-DS; A26Fab-645Fv-652/870Fv
Take B1: in the test with TNF, the “Affinity (fold loss against the parent)” value was 2 fold and the Stoichiometry came to 0.39. Further, the “Response RU” value in the test with human serum albumin [1] was 11 RU. In addition, the “Response RU” value with Ox40/mFc amounted to 31 RU.

B2: A26Fab-(3xG4S)-645dsFv-(3xG4S)-652dsFv (other)
heavy: EVQLVESGGGLVQPGGSLRLSCAASGFTFTNYGIHWIRQAPGKGLEWVASISPSGGLTYYRDSVKGRFTISRDDAKNSPYLQMNSLRAEDTAVYYCATGGEGIFDYWGQGTLVTVSSASTKGPSVFPLAPSSKSTSGGTAALGCLVKDYFPEPVTVSWNSGALTSGVHTFPAVLQSSGLYSLSSVVTVPSSSLGTQTYICNVNHKPSNTKVDKKVEPKSCSGGGGSGGGGSGGGGSEVQLLESGGGLVQPGGSLRLSCAVSGIDLSNYAINWVRQAPGKCLEWIGIIWASGTTFYATWAKGRFTISRDSTTVYLQMNSLRAEDTAVYYCARTVPGYSTAPYFDLWGQGTLVTVSSGGGGSGGGGSGGGGSQVTLKESGPVLVKPTETLTLTCTVSGFSLTNYHVQWIRQPPGKCLEWLGVMWSDGDTSFNSVLKSRLTISRDTSKSQVVLTMTNMDPVDTATYYCARDGTIAAMDYFDYWGQGTLVTVSS
light: DIQMTQSPSSLSASVGDRVTITCRATQSIYNALAWYQQKPGKAPKLLIYNANTLHTGVPSRFSASGSGTDSTLTISSLQPEDFATYYCQQYYDYPLTFGGGTKVEIKRTVAAPSVFIFPPSDEQLKSGTASVVCLLNNFYPREAKVQWKVDNALQSGNSQESVTEQDSKDSTYSLSSTLTLSKADYEKHKVYACEVTHQGLSSPVTKSFNRGECSGGGGSGGGGSGGGGSDIVMTQSPSSVSASVGDRVTITCQSSPSVWSNFLSWYQQKPGKAPKLLIYEASKLTSGVPSRFKGSGSGTDFTLTISSLQPEDFATYYCGGGYSSISDTTFGCGTKVEIKGGGGSGGGGSGGGGSDIQMTQSPSSLSASVGDRVTITCLASEDISNYLAWYQQKPGKAPKLLIYHTSRLQDGVPSRFSGSGSGTDFTLTISSLQPEDFATYYCQQGYRFPLTFGCGTKVEIKR
notes: Trispecific Fab-Fv-Fv (OX40, HSA, IL13); terminal 652 Fv with a disulfide (+DS read as dsFv); HEK293 supernatant; also called A26-645-652+DS; A26Fab-645Fv-652/870Fv
Regarding B2, in the test with IL13, the “Affinity (fold loss against the parent)” value was 2 fold and the Stoichiometry worked out at 0.88. Further, the “Response RU” value with human serum albumin [1] is 11 RU. In addition, the “Response RU” value with Ox40/mFc came out at 39 RU.

B3: A26Fab-(3xG4S)-645dsFv-(3xG4S)-652Fv (other)
heavy: EVQLVESGGGLVQPGGSLRLSCAASGFTFTNYGIHWIRQAPGKGLEWVASISPSGGLTYYRDSVKGRFTISRDDAKNSPYLQMNSLRAEDTAVYYCATGGEGIFDYWGQGTLVTVSSASTKGPSVFPLAPSSKSTSGGTAALGCLVKDYFPEPVTVSWNSGALTSGVHTFPAVLQSSGLYSLSSVVTVPSSSLGTQTYICNVNHKPSNTKVDKKVEPKSCSGGGGSGGGGSGGGGSEVQLLESGGGLVQPGGSLRLSCAVSGIDLSNYAINWVRQAPGKCLEWIGIIWASGTTFYATWAKGRFTISRDSTTVYLQMNSLRAEDTAVYYCARTVPGYSTAPYFDLWGQGTLVTVSSGGGGSGGGGSGGGGSQVTLKESGPVLVKPTETLTLTCTVSGFSLTNYHVQWIRQPPGKALEWLGVMWSDGDTSFNSVLKSRLTISRDTSKSQVVLTMTNMDPVDTATYYCARDGTIAAMDYFDYWGQGTLVTVSS
light: DIQMTQSPSSLSASVGDRVTITCRATQSIYNALAWYQQKPGKAPKLLIYNANTLHTGVPSRFSASGSGTDSTLTISSLQPEDFATYYCQQYYDYPLTFGGGTKVEIKRTVAAPSVFIFPPSDEQLKSGTASVVCLLNNFYPREAKVQWKVDNALQSGNSQESVTEQDSKDSTYSLSSTLTLSKADYEKHKVYACEVTHQGLSSPVTKSFNRGECSGGGGSGGGGSGGGGSDIVMTQSPSSVSASVGDRVTITCQSSPSVWSNFLSWYQQKPGKAPKLLIYEASKLTSGVPSRFKGSGSGTDFTLTISSLQPEDFATYYCGGGYSSISDTTFGCGTKVEIKGGGGSGGGGSGGGGSDIQMTQSPSSLSASVGDRVTITCLASEDISNYLAWYQQKPGKAPKLLIYHTSRLQDGVPSRFSGSGSGTDFTLTISSLQPEDFATYYCQQGYRFPLTFGGGTKVEIK
notes: Trispecific Fab-Fv-Fv (OX40, HSA, IL13); terminal 652 Fv without a disulfide (-DS read as Fv); HEK293 supernatant; also called A26-645-652-DS; A26Fab-645Fv-652/870Fv
Molecule B3 returned a Stoichiometry with IL13 of 0.95. Besides, the “Response RU” value in the test with human serum albumin [1] stood at 12 RU; with Ox40/mFc it was 42 RU.

B4: A26Fab 645Fv 1G4S 1189Fv (other)
heavy: EVQLVESGGGLVQPGGSLRLSCAASGFTFTNYGIHWIRQAPGKGLEWVASISPSGGLTYYRDSVKGRFTISRDDAKNSPYLQMNSLRAEDTAVYYCATGGEGIFDYWGQGTLVTVSSASTKGPSVFPLAPSSKSTSGGTAALGCLVKDYFPEPVTVSWNSGALTSGVHTFPAVLQSSGLYSLSSVVTVPSSSLGTQTYICNVNHKPSNTKVDKKVEPKSCSGGGGSGGGGSGGGGSEVQLLESGGGLVQPGGSLRLSCAVSGIDLSNYAINWVRQAPGKCLEWIGIIWASGTTFYATWAKGRFTISRDSTTVYLQMNSLRAEDTAVYYCARTVPGYSTAPYFDLWGQGTLVTVSSGGGGSEVQLVESGGGLVQPGGSLRLSCAASGFTFNDYDMAWVRQAPGKCLEWVASITPSGGGTYYRDSVKGRFTISRDNAKNSLYLQMNSLRAEDTAVYYCARHGYTLDYFEYWGQGTMVTVSS
light: DIQMTQSPSSLSASVGDRVTITCRATQSIYNALAWYQQKPGKAPKLLIYNANTLHTGVPSRFSASGSGTDSTLTISSLQPEDFATYYCQQYYDYPLTFGGGTKVEIKRTVAAPSVFIFPPSDEQLKSGTASVVCLLNNFYPREAKVQWKVDNALQSGNSQESVTEQDSKDSTYSLSSTLTLSKADYEKHKVYACEVTHQGLSSPVTKSFNRGECSGGGGSGGGGSGGGGSDIVMTQSPSSVSASVGDRVTITCQSSPSVWSNFLSWYQQKPGKAPKLLIYEASKLTSGVPSRFKGSGSGTDFTLTISSLQPEDFATYYCGGGYSSISDTTFGCGTKVEIKGGGGSDIQMTQSPSSLSASVGDRVTITCLASEGISNDLAWYQQKPGKAPKLLIYDATRLQDGVPSRFSGSGSGTDFTLTISSLQPEDFATYYCQQSYKYPWTFGCGTKLEIK
notes: Trispecific Fab-Fv-Fv (OX40, HSA, IL-6); second linker 1xG4S; HEK293 supernatant; also called A26Fab-645Fv-1189Fv; FabFvFv
B4 showed a Stoichiometry with human serum albumin [2] of 0.39. The same molecule showed a Stoichiometry with IL-6 [3] of 0.06. In the test with human serum albumin [4], binding was characterised by a dissociation constant (Kd) of 11.3 nM, the koff turned out to be 0.000379 s⁻¹ and the kon turned out to be 33400 M⁻¹ s⁻¹. Also, in the test with IL-6 [5], the RU of binding came to 1 RU.
